Measured values: the DeepSol protein solubility set

Test: soluble on expression in E. coli; label from the status in PepcDB or PDB records

| Sequence | soluble on expression in E. coli |
| --- | --- |
| MTESITRDSMQYDVVIVGAGPSGLSAAIKLKQLAEQNGREISVCVVEKGSEVGAHSLAGAVIDPIALNELISDWKEKGAPLTRTVTQDKVLFLTEKKAFNLPITPNFDNHGNYIVSLGEVVRWLAEQAENMGVEIYPGFAAAEVLYHEDGSVKGIATGNMGIGKDGEPTDSFQPGMELWAQQTLFAEGCRGSLSKQIIERFQLDQNSQPQTYGLGIKEVWEVPSEQHQPGLVVHSAGWPLDSKTYGGAFVYHFDDNKVAVGFVVGLDYQNPYLSPFEEFQRFKTHPEIRKTFEGGRRIAYGARSLIEGGLQSLPKLSFKGGILVGDAAGFLNMPRIKGIHTAMKSAMLAAEAVFPLLENLEEVEGFDSGKEAADYQQRFEQSWLYQELYAARNVRPSFKWGVYLGSIYTGIDQMIFRGKAPWTLKHHGKDNEQLKKAAACKPIDYPKPDGVLTFDRLSSVFLANLAHEENQPDHLVLNNPQTMIDVNYKEYASPETRYCPAGVYEIVEENGNPRLQINAANCVHCKTCDIKDPTQNITWICPEGASGPNYGGM | not soluble |
| SLFKTKWFAREARSHAITDEELCRAILETEQGKADALGGGVFKKRLHQNRERAIILAKGVSNWFYTFLYAKQDMSNINSQELAGFREIAKHYAFLTKAQLTAMINTKELTEICYDCKN | not soluble |
| ASNVHRVQQVIHAAIATNRKLAVAGRSMVKVVSIAERLGYLEAPDDLFIDIEEVSKYDDERVAIITTGSQGEPMSALSRMAKGAHRQITITENDTVIIAATPIPGNERSVSTIVDLLHRIGADVIFGHGKVHASGHGSAEELKLMLNLMRPKFFVPIHGEFRMQHAHKELAKSVGIREEAIFLVDKGEVVEFRNGQGRKAGKVPSGNVLIDGLGVGDVGNIVLRDRRLLSKDGILVVVVTLNKQSGTILSGPNIISRGFVYVRESEKLIEEANELVTETLKKCVTENVNEWSSLKSNVREVLSRFLFEKTKRRPMILPIIME | soluble |
| AGKTLYDKLWEAHEVKRRDDGSSLIYIDRHIIHEVTSPQAFEGLRLANRKPWRIDANIATPDHNVPTTPERKGGIEAIVDQVSRLQVQTLDENCDEYGIVEFKMNDERQGIVHVISPEQGATLPGMTVVCGDSHTSTHGAFGALAHGIGTSEVEHVLATQCLVAKKMKN | not soluble |
| MGSDKIHHHHHHMNDTPPPPSCARCSAVWQKSGTTNCWSNPDNRPGRPADCPSSAHGDIVASSFDEYRGESDDARLARVAARVEGLCYRKMTGSDAVVARWTRVEDTIALAKLMGWSKVGIATCIGLLDETRQLATILEAQGLEPVSVCCKAGSIDKLELGLDESDKVRPGTFEPACNPVAQAEVLNRCGTHMNIIVGLCVGHDMLFTKHSAAPVTTLVCKDRVTGHNPVAVLYGQNFYFKRLQKMPIDIPEGEE | not soluble |
| MQQLLAPVHAFLRCETPQTWIDVARASASLDELLIDHCNCELKAAQTAMFLLRRYALNAESGQSLLAWAKPYEEFVYHKDRDIEQFLARDVKKNELVAVLQPNQHFSFAQDLIPPLIRLIKEEFHHFEQVLELMHARQIPYRNIRAGRYAKGMMSHVTTHEKNILRDKLIVGAYIEARSCERFAKLAPYLDAELSKFYVSLLRSEARHFEDYLKLAQLVSSEDISERVAYFGEREAELIMAPDDEFHFHSGQPQAIKYSYA | not soluble |
| MGSDKIHHHHHHMADQKETIKPFKKIAIFDIFSGENSEIICSDKSKIAAQVNKWVNRAISNGADSCYVRLYEANKENIDTIIENLSYKILQIILPFSLNYKSSLVSAFHFREKDQIKMPEAKSNNVLFGKSCHSLKSIEEAEYEGLDYVFFSPIFATPTHPEAKGIGLDMLTQACKSTQMKVFALGGINENNYQKCLDAGASGIAAISMFKK | not soluble |
| MVRTAPDPAMVQRSHQKPSLVMTTHSMLIPMVDTLLELPARTLTDGTSTPKHQQLREILEELCRTQLKPGDMLPGERALEEQYGVSRITVRRAIGDLVATGQLRRSRGKGTFVAQAPMITRLQLASFSDEMAARKIEASSKILASSWSSPSAVVHEFFGTEQGTPHTHLVRVRLGGGKPFCINDAWYNSAIAPDLLENDVYKSVYSILEQNYGASITGAEQITTAVAATPETARILGVDVGEPLLKVERHAHAGENPIEWCSSLYRTDRFALRTFITK | not soluble |
| MGSDKIHHHHHHMMIATFSLSPAGAKRLIARGLINEAVFQQAMTHGRMIIGVGTTNSYIAEELGLLSADEKPRFAAGIVSGGVPCVTAADTRFTSICLENGRIIKDISWEEFIMDFNRDDVFVKGANAFDADGNAGVLLANPRGGTVGGSFGVLAARGCKLLVPVGHEKLIPSCTAAARLMGINRLDYSLGQRCGLALLPAGFAQIYTEIDALKTLFAVEATIVAAGGVSGSEGSVMLAIDGPDEAVKDALALARTLLKEKPLSVPRQSCKDCQASGNCVFKEIPPID | not soluble |
| TAQIKGLTQAQRNANDGISLAQTAEGALGEISNNLQRIRELAVQASNGTNTQTDRDALQAEVTQLQSEIQRVAEQTSFNGQKLLDGSFNGVQFQIGANAGETIGVSKIMNAQTASLGGSLTRTTSTIDATDLTKYDTAMAAGDLTINGVDVGKIDAASTAQERAAQLTEAINRVSSQTNVGASYDKTTGQVTLTSNAAIAVAGAANDATVAGWANNATTGTATTTTGINSLTVSSFTNAQQTITQIDNALKDINTARADLGAVQNRFTSTVANLQSMTENLSSALEHHHHHH | soluble |
| AHHHHHHGSGDNRKVRVVVGGVFDILHVGHVHFLKMAKELGDELIVIVAHDETVKRRKGRPPINPAEDRAELLKSIRYVDDVVIGEPGEISIDLIKRLKPDVIALGPDQDFSCEELKKRLRKEGINAEVIRLPYLYKSDRAKTSKIIQRIIETFCE | not soluble |
| MITLAVDAMGGDQGLAVTVPGATAFLQAHPDVRLIMTGDETQLRQALTAAGAPMERIDICHTTQVVGMDEAPQSALKNKKDSSMRVAINQVKEGKAQAAVSAGNTGALMATARFVLKTIPGIERPAIAKFLPSDTDHVTLALDLGANVDCTSEQLAQFAVIGSELVHALHPQKGQPRVGLVNVGTEDIKGTDTVKQTYKLLQNSKLNFIGNIESNGILYGEADVVVADGFVGNVMLKTIEGAVKFMSGAIRREFQSNLFNKLAAVAALPALKGLKNKLDPRKFNGAILLGLRGIVIKSHGGTDETGFRYALEEAYHEAKSAGLSKIEQGVAEQLAALETAKAVQNENVGGL | not soluble |
| MVTKTEEIQLNQLENQVENGGGGVWEYLCLVRKLKVRRSEIVLKHGLSILNDSGKRSALGPDEWTLYEQVAIAAMDCQSLGVAQNCIKVLKKKFPESKRVGKLEALLLEAKGMWEEAEKAYTSLLEDNPLDQVIHKRKVAMAKAQGKSSLAIEHLNKYLEVFMADHDAWRELAEIYVSLQMYKQAAFCYEELILTQPTLPLYHLAYADVLYTIGGLENLIAARKYYAATIDLTGGKSTRALLGICLCGSAIAQISKGRNKEDKDMAAPELQSLAATALEREYKQKAPAKLNLLTSALRNLKIA | not soluble |
| KFGGINETYLPPNNTVRTAQASFDENFPHFRTEPIKLVITGATNQQLVDVYQQANKVEGLTDRFKPSSATKDGTTVLSAGIENREDNAKVVEQLRAIDAPEGVSVYIGGIPAMEVESIEALFDKLP | not soluble |
| MKFTDKTTQADTQRTITKDGFLVVPATISKVGVFDYLATELGLKEDGIKKVARTEKSLFSDETIKSFENATLTVGHLKDGVNAKNWKQLSVGVVRNVKRVGDELTAEAWIYDEQAIKTVQEHGVEQLSCGYDCDIKPSTVQDADFEMSPMIGNHVAIVAKGRCGGSVKLADEDKTIMGKTAKILDAFLGAFGIKLSDEQKKQIEDEEKSGSEEGKEPKGEQPTKPKEKKSEPENKKEDDVEKEELEKSLKAKDEEIQQLKDAQAKRDAEVKQAAVLADAKTAFKEVNFADNATVREIQESAVVAQGIFTKDEAAKLSDEEISGAYQTAKVVVAKLADERKSLGNILLGDAEPKAAPKIDFNKTYNS | not soluble |
| MIIMYAIGIGDNKEEVLKAYEKLKEEGIEVELIDNPKLLVDKLLDGEIDGAVRGSLSSSKVILYLRERIGKFYRASILKNPFTNGIFLLSPVGIDDISEDKNERIKDKIRIIEFASNFLKNYNIKAKVAVLSGGRLGDLGRNKVVDETIYEAEEIVEHFKGNVDIIHNGILIEEYLKDGYNIIIAVDGITGNLIFRCLGLICKIPGYGAVILSDKNVNFIDTSRNANWERYYNAIKFLIGGDFG | soluble |
| MTRILPCLFLVLLAAAPLLANPANPLNLKKHHGVFCDVCKALVEGGEKVGDDDLDAWLDVNIGTLCWTMLLPLHHECEEELKKVKKELKKDIENKDSPDKACKDVDLC | not soluble |
| MKFFVFALVLALMISMISADSHEKRHHGYRRKFHEKHHSHREFPFYGDYGSNYLYDNLEHHHHHH | not soluble |
| MSLIHSMTAFSRIQKQFDVGDFCWEIRSVNHRYLDVSFRLPESFRFLEAELRTLLRDKIHRGKLECHLKYKDTSCDNRSMLINIGTINALLDLSSKLSASHHLANDMTVSQVLSWPGVVEASLLDMEELSQIALELFQKSIDKLCEVRAGEGRSLKAYVEDRLQALRQEVMKSKSIVVSMSAKTKDKLLTRLHELQMDVPEARVEQEIALLLAKLDVSEELDRLETHIAEVSRTLNAEKVTGRRLDFLMQELNREANTLSSKSDSAELTLCAVEMKVLIEQMREQIQNFEEGHHHHHH | soluble |
| MRAVIPYKKAGAKSRLSPVLSLQEREEFVELMLNQVISSLKGAGIEQVDILSPSVYGLEEMTEARVLLDEKDLNEALNRYLKEAEEPVLIVMADLPLLSPEHIKEISSTEKDVCIVPGKGGGTNALFIKNPSKYRVKYYGSSFLTHCSIATDSGQDFEIYDSFMAGTDIDEPEDLVELLIHGKGAAKDYIESKFRLEVKKG | not soluble |
| MCTVVIDRRPGDPWPLLVAANRDELADRPWLPPARHWPSRPEVIAGLDELAGGTWMGLNDWGVVACVLNREGTLGPLAGRRSRGELVLDALDMADARDAAEALADIDPRAYRPFNLIVADNRDAFWIRHADAEGRAAVEVHPLAEGLTLMTAHDPDDPLDARARAYLPRFRAAPRPDPQLRDGWAPWTHLLGSRDHAVDDGPTAAMCFSLAGGFGTSSSSLIALPAMERIGVDPLYLFAPAPPDQTDYRPVLEHHHHHH | soluble |
| MGSDKIHHHHHHMSNQYHNFNSQIESHILFYGHQKCKPDEYFDGTNLRKNDILYYVLDGKGTFNSSGHHVAKLAKGDLFLVPRSRTCYFEADHDNPWEYFWIGLSGAGTNEMIKASNLPNKNFLRQIQKTEFFETLKELYSTLNEDSSLLNNVKIASLTYQLFYHLIDEFPNHPSIRKTPKIDQYQIAIDYLNKNYTDPTCNIVELCNRLGVSRSFLYSLFRKNTKISPQKYLMQLRMEAAKKELLNTTHNLKEIARKVGYGDEFTFSKAFKRYSGVSPNVFRGK | not soluble |
| MSAQLTDSYGLLEARVTELKGELADAGVQRLQELAEKERLANRLQNLLDLLPGGVIVIDGMGVVREANPAAIDLLGQPLLGMLWRHVISRCFAPREDDGHEVSLKDGRRLSIATRSLDAEPGQLVLLNDLT | not soluble |
| GMKAADFTYVTVHGDNSRMSRLKAQYTMLFFYDPDCSNCRKFEKLFAEIPAFVEMVENGTLRVLAIYPDENREEWATKAVYMPQGWIVGWNKAGDIRTRQLYDIRATPTIYLLDGRKRVILKDTSMEQLIDYLATQAG | not soluble |
| MTEVEKSRSGRIVKRKVFADFQQLDDDLKSITTEELRESASESKKLRLGPTRRSCRNIPTNYEELKAKTDAGIIPETVYYRASNNSMYIPSITADMLKNDGNDLTVQTRSDKYFKYNRVRQSTKIDYAEPEKVYDIIYAVRKRPILWDQRLICHRNSNLSRRAWDQLDLELGIDEEYPLARRKQIWKSKRDYFVSAVNAANLRKWIYADALEFYRPMINFRTTFCLRPTVAQPSQSVHDKLVLADKNIQCTPGDKKNVLTFLLKSLYDTGMSSPEMMAEHGLEILKIFKKNAESSNLKLN | not soluble |
